Data taken from PMC12808100, “The non-catalytic DNA polymerase ε subunit is an NPF motif recognition protein” (Nature Communications, 2025).

How the values were obtained:
[1] = target: His6-avi-MBP-tagged POLE2; assay: Single-point nHU-MS with recombinant His6-avi-MBP-POLE2 bait, Jurkat extract; format: binding, human; details: significant apparent affinity of endogenous prey protein for POLE2 bait; single-point nHU-MS; Figure S11
Excerpt: So far, our study only focused on a few hand-picked NPF motifs and studied them as short synthetic peptides. However, many other proteins may be present in the proteome that could bind to POLE2 and their putative NPF motifs are embedded in their natural structures that can greatly affect their binding properties. To investigate interactions between POLE2 and intact, full length proteins proteome-wide, we used nHU-MS experiments with recombinant His6-avi-MBP-tagged POLE2 as bait and purified His6-avi-MBP as a control. Even though we are aware that this recombinant POLE2 may bind to NPF motifs with a somewhat altered affinity, we assumed that this would affect all NPF motif-mediated interactions equally, allowing an unbiased affinity ranking of all identified partners. Single point nHU measurements were performed at 26 μM POLE2 concentration and the recovered supernatant was measured by label free proteomic MS measurements (Fig. 3A, Supplementary Figs. 8A, 9, Supplementary Data 1).
Single-point nHU experiments with protein baits were carried out nearly identically with two key modifications. First, the resin saturation step was carried out by mixing 50 μl streptavidin resin with 0.5−1 ml 50 μM biotinylated protein solution and the mixture was incubated for 1.5 h at 4 °C with constant agitation. Second, instead of using estimated bait concentrations, we measured it experimentally. An extra aliquot of resin stock was prepared alongside the nHU samples that were identically processed that were used to eluate the immobilized proteins under harsh conditions, in order to experimentally quantify the Cbait by using densitometry of Coomassie stained SDS-PAGE that included a protein calibration series. For this, 50 μl bait-saturated resin aliquots were mixed with 200 μl 4x Laemmli Sample Buffer (120 mM Tris-HCl pH 7, 8% SDS, 100 mM DTT, 32% glycerol, 0.004% bromphenol blue, 1% β-mercaptoethanol), instead of cell extract. After 15 min incubation at 95 °C, these samples were analyzed by SDS-PAGE using protein calibration standard, made from recombinant MBP. Densitometry was carried out after Coomassie staining on raw Tif images by using Fiji ImageJ 1.53c and experimental bait concentration were determined by adjusting for molecular weight differences between MBP and MBP-POLE2 constructs.
Samples were digested overnight at 37 °C.

POLE2 S522A = assay: Proximity labeling MS, POLE2 S522A; details: bait POLE2_S522A
POLE2 E520A = assay: Proximity labeling MS, POLE2 E520A; details: bait POLE2_E520A
POLE2 WT = assay: Proximity labeling MS, MAC3-tagged POLE2 WT in Flp-In T-REx 293 cells; format: cell-based, human; details: bait POLE2_WT
POLE2 Y311F = assay: Proximity labeling MS, POLE2 Y311F; details: bait POLE2_Y311F

B1: URM1 (protein, UniProt Q9BTM9 1-101, looked up)
Ubiquitin-related modifier 1: MAAPLSVEVEFGGGAELLFDGIKKHRVTLPGQEEPWDIRNLLIWIKKNLLKERPELFIQGDSVRPGILVLINDADWELLGELDYQLQDQDSVLFISTLHGG
pKapp_sign [1]: 4.219

B2: SEC14L4 (protein, UniProt Q9UDX3 1-406, looked up)
SEC14-like protein 4: MSSRVGDLSPQQQEALARFRENLQDLLPILPNADDYFLLRWLRARNFDLQKSEDMLRRHMEFRKQQDLDNIVTWQPPEVIQLYDSGGLCGYDYEGCPVYFNIIGSLDPKGLLLSASKQDMIRKRIKVCELLLHECELQTQKLGRKIEMALMVFDMEGLSLKHLWKPAVEVYQQFFSILEANYPETLKNLIVIRAPKLFPVAFNLVKSFMSEETRRKIVILGDNWKQELTKFISPDQLPVEFGGTMTDPDGNPKCLTKINYGGEVPKSYYLCEQVRLQYEHTRSVGRGSSLQVENEILFPGCVLRWQFASDGGDIGFGVFLKTKMGEQQSAREMTEVLPSQRYNAHMVPEDGSLTCLQAGVYVLRFDNTYSRMHAKKLSYTVEVLLPDKASEETLQSLKAMRPSPTQ
pKapp_sign [1]: 5.194

B3: NUP35 (protein, UniProt Q8NFH5 1-326, looked up)
Nucleoporin NUP35: MAAFAVEPQGPALGSEPMMLGSPTSPKPGVNAQFLPGFLMGDLPAPVTPQPRSISGPSVGVMEMRSPLLAGGSPPQPVVPAHKDKSGAPPVRSIYDDISSPGLGSTPLTSRRQPNISVMQSPLVGVTSTPGTGQSMFSPASIGQPRKTTLSPAQLDPFYTQGDSLTSEDHLDDSWVTVFGFPQASASYILLQFAQYGNILKHVMSNTGNWMHIRYQSKLQARKALSKDGRIFGESIMIGVKPCIDKSVMESSDRCALSSPSLAFTPPIKTLGTPTQPGSTPRISTMRPLATAYKASTSDYQVISDRQTPKKDESLVSKAMEYMFGW
pKapp_sign [1]: 4.141

B4: ASPA (protein, UniProt P45381 1-313, looked up)
Aspartoacylase: MTSCHIAEEHIQKVAIFGGTHGNELTGVFLVKHWLENGAEIQRTGLEVKPFITNPRAVKKCTRYIDCDLNRIFDLENLGKKMSEDLPYEVRRAQEINHLFGPKDSEDSYDIIFDLHNTTSNMGCTLILEDSRNNFLIQMFHYIKTSLAPLPCYVYLIEHPSLKYATTRSIAKYPVGIEVGPQPQGVLRADILDQMRKMIKHALDFIHHFNEGKEFPPCAIEVYKIIEKVDYPRDENGEIAAIIHPNLQDQDWKPLHPGDPMFLTLDGKTIPLGGDCTVYPVFVNEAAYYEKKEAFAKTTKLTLNAKSIRCCLH
pKapp_sign [1]: 5.902

B5: ATAD3A (protein, UniProt Q9NVI7 2-586, looked up)
ATPase family AAA …: SWLFGINKGPKGEGAGPPPPLPPAQPGAEGGGDRGLGDRPAPKDKWSNFDPTGLERAAKAARELEHSRYAKDALNLAQMQEQTLQLEQQSKLKEYEAAVEQLKSEQIRAQAEERRKTLSEETRQHQARAQYQDKLARQRYEDQLKQQQLLNEENLRKQEESVQKQEAMRRATVEREMELRHKNEMLRVEAEARARAKAERENADIIREQIRLKAAEHRQTVLESIRTAGTLFGEGFRAFVTDWDKVTATVAGLTLLAVGVYSAKNATLVAGRFIEARLGKPSLVRETSRITVLEALRHPIQVSRRLLSRPQDALEGVVLSPSLEARVRDIAIATRNTKKNRSLYRNILMYGPPGTGKTLFAKKLALHSGMDYAIMTGGDVAPMGREGVTAMHKLFDWANTSRRGLLLFVDEADAFLRKRATEKISEDLRATLNAFLYRTGQHSNKFMLVLASNQPEQFDWAINDRINEMVHFDLPGQEERERLVRMYFDKYVLKPATEGKQRLKLAQFDYGRKCSEVARLTEGMSGREIAQLAVSWQATAYASEDGVLTEAMMDTRVQDAVQQHQQKMCWLKAEGPGRGDEPSPS
pKapp_sign [1]: 4.126

B6: IVD (protein, UniProt P26440 33-426, looked up)
Isovaleryl-CoA dehydrogenase, …: HSLLPVDDAINGLSEEQRQLRQTMAKFLQEHLAPKAQEIDRSNEFKNLREFWKQLGNLGVLGITAPVQYGGSGLGYLEHVLVMEEISRASGAVGLSYGAHSNLCINQLVRNGNEAQKEKYLPKLISGEYIGALAMSEPNAGSDVVSMKLKAEKKGNHYILNGNKFWITNGPDADVLIVYAKTDLAAVPASRGITAFIVEKGMPGFSTSKKLDKLGMRGSNTCELIFEDCKIPAANILGHENKGVYVLMSGLDLERLVLAGGPLGLMQAVLDHTIPYLHVREAFGQKIGHFQLMQGKMADMYTRLMACRQYVYNVAKACDEGHCTAKDCAGVILYSAECATQVALDGIQCFGGNGYINDFPMGRFLRDAKLYEIGAGTSEVRRLVIGRAFNADFH
pKapp_sign [1]: 4.276

B7: PYGB (protein, UniProt P11216 2-843, looked up)
Glycogen phosphorylase, brain …: AKPLTDSEKRKQISVRGLAGLGDVAEVRKSFNRHLHFTLVKDRNVATPRDYFFALAHTVRDHLVGRWIRTQQHYYERDPKRIYYLSLEFYMGRTLQNTMVNLGLQNACDEAIYQLGLDLEELEEIEEDAGLGNGGLGRLAACFLDSMATLGLAAYGYGIRYEFGIFNQKIVNGWQVEEADDWLRYGNPWEKARPEYMLPVHFYGRVEHTPDGVKWLDTQVVLAMPYDTPVPGYKNNTVNTMRLWSAKAPNDFKLQDFNVGDYIEAVLDRNLAENISRVLYPNDNFFEGKELRLKQEYFVVAATLQDIIRRFKSSKFGCRDPVRTCFETFPDKVAIQLNDTHPALSIPELMRILVDVEKVDWDKAWEITKKTCAYTNHTVLPEALERWPVSMFEKLLPRHLEIIYAINQRHLDHVAALFPGDVDRLRRMSVIEEGDCKRINMAHLCVIGSHAVNGVARIHSEIVKQSVFKDFYELEPEKFQNKTNGITPRRWLLLCNPGLADTIVEKIGEEFLTDLSQLKKLLPLVSDEVFIRDVAKVKQENKLKFSAFLEKEYKVKINPSSMFDVHVKRIHEYKRQLLNCLHVVTLYNRIKRDPAKAFVPRTVMIGGKAAPGYHMAKLIIKLVTSIGDVVNHDPVVGDRLKVIFLENYRVSLAEKVIPAADLSQQISTAGTEASGTGNMKFMLNGALTIGTMDGANVEMAEEAGAENLFIFGLRVEDVEALDRKGYNAREYYDHLPELKQAVDQISSGFFSPKEPDCFKDIVNMLMHHDRFKVFADYEAYMQCQAQVDQLYRNPKEWTKKVIRNIACSGKFSSDRTITEYAREIWGVEPSDLQIPPPNIPRD
pKapp_sign [1]: 4.228

B8: ABT1 (protein, UniProt Q9ULW3 1-272, looked up)
Activator of basal …: MEAEESEKAATEQEPLEGTEQTLDAEEEQEESEEAACGSKKRVVPGIVYLGHIPPRFRPLHVRNLLSAYGEVGRVFFQAEDRFVRRKKKAAAAAGGKKRSYTKDYTEGWVEFRDKRIAKRVAASLHNTPMGARRRSPFRYDLWNLKYLHRFTWSHLSEHLAFERQVRRQRLRAEVAQAKRETDFYLQSVERGQRFLAADGDPARPDGSWTFAQRPTEQELRARKAARPGGRERARLATAQDKARSNKGLLARIFGAPPPSESMEGPSLVRDS
AvgSpec (POLE2 S522A; mean of 3 replicates): 14.33 | Spec (POLE2 S522A; replicate 1): 12 | Spec (POLE2 S522A; replicate 2): 14 | Spec (POLE2 S522A; replicate 3): 17 | SpecSum (POLE2 S522A; sum of 3 replicates): 43 | FoldChange (POLE2 S522A; versus control counts): 11.82 | AvgSpec (POLE2 E520A; mean of 3 replicates): 9.33 | Spec (POLE2 E520A; replicate 1): 14 | Spec (POLE2 E520A; replicate 2): 7 | Spec (POLE2 E520A; replicate 3): 7 | SpecSum (POLE2 E520A; sum of 3 replicates): 28 | FoldChange (POLE2 E520A; versus control counts): 7.7 | AvgSpec (POLE2 WT; mean of 6 replicates): 7.33 | Spec (POLE2 WT; replicate 1): 9 | Spec (POLE2 WT; replicate 2): 11 | Spec (POLE2 WT; replicate 3): 13 | Spec (POLE2 WT; replicate 4): 4 | Spec (POLE2 WT; replicate 5): 2 | Spec (POLE2 WT; replicate 6): 5 | SpecSum (POLE2 WT; sum of 6 replicates): 44 | FoldChange (POLE2 WT; versus control counts): 6.05 | AvgSpec (POLE2 Y311F; mean of 3 replicates): 9.67 | Spec (POLE2 Y311F; replicate 1): 11 | Spec (POLE2 Y311F; replicate 2): 8 | Spec (POLE2 Y311F; replicate 3): 10 | SpecSum (POLE2 Y311F; sum of 3 replicates): 29 | FoldChange (POLE2 Y311F; versus control counts): 7.97
